Measurements as given in patent publication US5780025A, “Compositions and methods for the synthesis and assay of enkephalinase” (Genentech, Inc., priority 1993, dated 1998).

Target: T1, dansyl-Gly-Trp-Gly or dansyl-Gly-Tyr-Gly (Rattus norvegicus, UniProt P07861)
T1 construct: made in house; host or cells: human embryonic kidney (293) cells (pCISrENK); also rabbit reticulocyte lysate in vitro translation (prENKsense)
T1 sequence (P07861 1-750): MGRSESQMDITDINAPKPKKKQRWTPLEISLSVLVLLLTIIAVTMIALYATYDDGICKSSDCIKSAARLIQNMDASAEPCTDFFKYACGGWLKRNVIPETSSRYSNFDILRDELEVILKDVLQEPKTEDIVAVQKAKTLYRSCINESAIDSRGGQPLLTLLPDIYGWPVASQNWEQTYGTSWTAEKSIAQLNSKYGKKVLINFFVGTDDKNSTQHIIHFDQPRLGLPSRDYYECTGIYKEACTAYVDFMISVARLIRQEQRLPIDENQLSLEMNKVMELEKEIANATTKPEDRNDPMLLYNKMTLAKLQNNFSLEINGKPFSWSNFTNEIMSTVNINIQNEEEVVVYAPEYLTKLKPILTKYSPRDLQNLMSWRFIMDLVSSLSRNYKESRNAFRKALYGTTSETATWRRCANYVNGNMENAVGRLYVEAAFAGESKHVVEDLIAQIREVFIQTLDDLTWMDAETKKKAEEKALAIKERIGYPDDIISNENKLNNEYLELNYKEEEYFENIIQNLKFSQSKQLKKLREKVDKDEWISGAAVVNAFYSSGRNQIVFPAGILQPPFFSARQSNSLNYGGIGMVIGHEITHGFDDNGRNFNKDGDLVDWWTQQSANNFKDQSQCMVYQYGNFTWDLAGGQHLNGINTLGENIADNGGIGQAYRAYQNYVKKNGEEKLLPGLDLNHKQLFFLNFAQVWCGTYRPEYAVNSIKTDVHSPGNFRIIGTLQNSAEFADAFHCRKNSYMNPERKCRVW
Test: Enkephalinase activity of expressed rat enkephalinase material
Assay type: biochemical
Conditions: rat enkephalinase cDNA expression products
Text: An assay using novel fluorescent substrates for enkephalinase was developed to assess whether enkephalinase is expressed. This assay is based on the disappearance of energy transfer between a tryptophan or a tyrosine residue and the 5-dimethylaminonaphthalene-1-sulfonyl group (dansyl) in the substrates dansyl-Gly-Trp-Gly or dansyl-Gly-Tyr-Gly upon hydrolysis of their Gly-Trp or Gly-Tyr amide bond by enkephalinase. No significant difference in Km or kcat values were found for dansyl-Gly-Trp-Gly and dansyl-Gly-Tyr-Gly as the active site of enkephalinase appears to accommodate tryptophan residues similarly to tyrosine. The tryptophan and tyrosine containing substrates can be used for continuous recording of enkephalinase activity. […]
Fluorescence measurements were made using a Perkin Elmer, model 650-10S spectrofluorometer, equipped with a temperature controlled cell-holder, maintained at 37° C. […] The 600 μl mixture was transferred into a quartz cuvette, and fluorescence measured. […] The fluorescence in the incubation media could thus be related to the amounts of hydrolyzed substrates. […] Ten μl of purified rat kidney enkephalinase was added and the increase in tryptophan or tyrosine fluorescence was continuously monitored (excitation=280 nm, emission=360 nm for tryptophan, excitation 277, emission 315 for tyrosine). […] Under these conditions, tryptophan fluorescence was stable for over 2 hr.

B1: pCISrENK: rat enkephalinase expressed from plasmid pCISrENK in human embryonic kidney (293) cells and purified (protein, UniProt P07861 2-750, looked up)
Neprilysin: GRSESQMDITDINAPKPKKKQRWTPLEISLSVLVLLLTIIAVTMIALYATYDDGICKSSDCIKSAARLIQNMDASAEPCTDFFKYACGGWLKRNVIPETSSRYSNFDILRDELEVILKDVLQEPKTEDIVAVQKAKTLYRSCINESAIDSRGGQPLLTLLPDIYGWPVASQNWEQTYGTSWTAEKSIAQLNSKYGKKVLINFFVGTDDKNSTQHIIHFDQPRLGLPSRDYYECTGIYKEACTAYVDFMISVARLIRQEQRLPIDENQLSLEMNKVMELEKEIANATTKPEDRNDPMLLYNKMTLAKLQNNFSLEINGKPFSWSNFTNEIMSTVNINIQNEEEVVVYAPEYLTKLKPILTKYSPRDLQNLMSWRFIMDLVSSLSRNYKESRNAFRKALYGTTSETATWRRCANYVNGNMENAVGRLYVEAAFAGESKHVVEDLIAQIREVFIQTLDDLTWMDAETKKKAEEKALAIKERIGYPDDIISNENKLNNEYLELNYKEEEYFENIIQNLKFSQSKQLKKLREKVDKDEWISGAAVVNAFYSSGRNQIVFPAGILQPPFFSARQSNSLNYGGIGMVIGHEITHGFDDNGRNFNKDGDLVDWWTQQSANNFKDQSQCMVYQYGNFTWDLAGGQHLNGINTLGENIADNGGIGQAYRAYQNYVKKNGEEKLLPGLDLNHKQLFFLNFAQVWCGTYRPEYAVNSIKTDVHSPGNFRIIGTLQNSAEFADAFHCRKNSYMNPERKCRVW
modifications: recombinant, expressed in 293 cells
notes: rat enkephalinase expressed from plasmid pCISrENK in human embryonic kidney (293) cells and purified
B1 was tested, and the “enkephalinase activity of expressed material” value was “biologically active”.
